The values below come from patent publication US20220017622A1 (Pfizer, published 2022).

Experiment [1] has as its target T1, human B7-H4 extracellular domain (human, UniProt Q7Z7D3 29-258).
T1 construct: For SPR it says only human B7-H4 ECD; also called Hu B7-H4 ECD; huB7-H4 ECD
T1 sequence: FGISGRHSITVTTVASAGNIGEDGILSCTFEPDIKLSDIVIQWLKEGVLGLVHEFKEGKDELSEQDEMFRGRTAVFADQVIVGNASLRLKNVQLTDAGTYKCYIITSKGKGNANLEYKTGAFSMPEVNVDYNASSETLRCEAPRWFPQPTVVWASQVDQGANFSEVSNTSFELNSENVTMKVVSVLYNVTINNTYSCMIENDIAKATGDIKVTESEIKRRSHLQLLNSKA
Put plainly: SPR Biacore 8K 25 C; mAb captured on anti-human Fc, huB7-H4 ECD analyte, 1:1 fit.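 Further: antibodies tested as IgG1, running buffer HBS-EP+ at pH 7.4, rate constants and affinity from a 1:1 Langmuir model fit.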

Experiment [2] addresses T1, human B7-H4 extracellular domain. Put plainly: competition ELISA on coated huB7-H4 ECD; competitor biotinylated 0052 (by series, not given); second value of the fourth IC50 column. (ELISA stands for enzyme-linked immunosorbent assay.)
Experiment [3] has the same target. Put plainly: competition ELISA on coated huB7-H4 ECD; competitor biotinylated 0052 (by series, not given); first of the four IC50 [nM] columns; competitor not given.
In experiment [4] the target is T2, cynomolgus CD3 on cells from cynomolgus PBMCs (cynomolgus, UniProt Q95LI5 22-198; Q95LI8 22-171).
T2 construct: whole, on cells; also called Cyno PBMC
Description: flow cytometry on cyno PBMC, 37 C. (A flow cytometer gives signals particle by particle.)

For experiment [5], the target named is T3, human CD3 on primary human T cells (human, UniProt P07766 23-207; P04234 22-171).
T3 construct: whole, on cells; On cells the whole CD3/TCR complex is present
Put plainly: flow cytometry on primary human T cells, 37 C.

The target in experiment [6] is T4, human CD3 (delta/epsilon heterodimer) (human, UniProt P07766 23-126; P04234 22-105).
T4 construct: captured on an anti-His chip, so it carries a His tag; also called huCD3
Description: SPR 37 C; CD3 delta/epsilon on anti-His chip, bispecific analyte.

Experiment [7] deals with T5, cyno CD3 (delta/epsilon heterodimer) (cyno, UniProt Q95LI5 22-117; Q95LI8 22-105).
T5 construct: also called cyCD3
The description is as above.

Experiment [8] has as its target T4, human CD3 (delta/epsilon heterodimer). Put plainly: SPR 37 C; CD3 delta/epsilon on anti-His chip, bispecific (stable CHO) analyte.
Experiment [9] addresses T5, cyno CD3 (delta/epsilon heterodimer). The experiment is described as above.
Experiment [10] concerns the target T4, human CD3 (delta/epsilon heterodimer). Description: SPR 37 C; CD3 delta/epsilon on anti-His chip, bispecific (transient expi293) analyte.
The target of experiment [11] is T5, cyno CD3 (delta/epsilon heterodimer). The description is as above.

T5 sequence (Q95LI5 22-117, stated change not applied, chain 1 of 2): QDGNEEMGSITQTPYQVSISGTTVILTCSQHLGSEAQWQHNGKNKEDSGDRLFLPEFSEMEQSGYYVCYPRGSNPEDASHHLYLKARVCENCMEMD
T5 sequence (Q95LI8 22-105, stated change not applied, chain 2 of 2): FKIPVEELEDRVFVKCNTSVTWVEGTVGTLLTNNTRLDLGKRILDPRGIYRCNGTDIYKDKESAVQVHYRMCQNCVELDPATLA
T4 sequence (P07766 23-126, stated change not applied, chain 1 of 2): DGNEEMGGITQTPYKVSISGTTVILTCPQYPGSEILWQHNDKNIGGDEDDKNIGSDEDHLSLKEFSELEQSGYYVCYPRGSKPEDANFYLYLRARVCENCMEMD
T4 sequence (P04234 22-105, stated change not applied, chain 2 of 2): as the sequence (Q95LI8 22-105, stated change not applied, chain 2 of 2) above, with V5I, K15N, V20I, T32S, N33D, N34I, A64T, N74S, L83V counted along it
T3 sequence (P07766 23-207, chain 1 of 2): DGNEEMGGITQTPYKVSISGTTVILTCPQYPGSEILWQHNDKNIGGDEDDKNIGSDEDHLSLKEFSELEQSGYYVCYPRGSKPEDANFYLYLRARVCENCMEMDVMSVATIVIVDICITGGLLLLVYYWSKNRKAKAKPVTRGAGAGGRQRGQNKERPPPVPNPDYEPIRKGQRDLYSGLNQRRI
T3 sequence (P04234 22-171, chain 2 of 2): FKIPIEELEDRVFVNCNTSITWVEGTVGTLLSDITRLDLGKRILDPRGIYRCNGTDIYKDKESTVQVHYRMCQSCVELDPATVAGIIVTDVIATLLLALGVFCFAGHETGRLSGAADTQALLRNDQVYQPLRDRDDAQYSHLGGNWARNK
T2 sequence (Q95LI5 22-198, chain 1 of 2): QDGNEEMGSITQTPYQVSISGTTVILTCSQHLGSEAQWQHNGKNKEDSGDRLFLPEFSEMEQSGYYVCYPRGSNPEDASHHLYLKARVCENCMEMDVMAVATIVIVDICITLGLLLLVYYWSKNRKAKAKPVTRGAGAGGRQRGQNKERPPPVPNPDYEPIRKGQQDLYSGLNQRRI
T2 sequence (Q95LI8 22-171, chain 2 of 2): as the sequence (P04234 22-171, chain 2 of 2) above, with I5V, N15K, I20V, S32T, D33N, I34N, T64A, S74N, V83L, H141R counted along it

B1: B7-H4 antibody 0047 (antibody, human IgG1, kappa, V domains shown)
VH: QVQLQQWGAGLLKPSETLPLTCAVYGGSFSGYYWNWIRQPPGKGLEWIGEINHSGSATYNPSLKSRVTISVDTSKNHFSLKLSSVTAADTAVYFCARGLYNWNVDHWGQGTLVTVSS
VL: DIQMTQSPSSLSASVGDRVTITCRASQGIRNDLGWYQQKPGKAPKRLIYAASSLQSGVPSRFSGSGSGTEFTLTISSLQPEDFATYYCLQHNSYPRTFGGGTKVEIKR
notes: also called 7H7
B1: in experiment [1], the Kd (in general, the constant that tells how readily two partners part at equilibrium) was found to be 3.79 nM; the koff (usually the rate constant with which the complex falls apart) amounted to 0.000635 s⁻¹; the kon (usually the rate constant with which the complex forms) stood at 168000 M⁻¹ s⁻¹. The IC50 (commonly the concentration needed to halve the response being measured) in [2] turned out to be 1 nM. The molecule also displayed an IC50 in [3] of 4.8 nM.

B2: B7-H4xCD3 bispecific antibody 1167 (bispecific antibody)
heavy 1: EVQLLESGGGLVQPGGSLRLSCAASGFTFSSYAMSWVRQAPGKGLEWVSAISGGGGSTYYADSVKGRFTISRDNSKNTLYLQMNSLRAEDTAVYYCARDIQWYGESTLFDYWGQGTLVTVSSASTKGPSVFPLAPCSRSTSESTAALGCLVKDYFPEPVTVSWNSGALTSGVHTFPAVLQSSGLYSLSSVVTVPSSNFGTQTYTCNVDHKPSNTKVDKTVERKCEVECPECPAPPVAGPSVFLFPPKPKDTLMISRTPEVTCVVVAVSHEDPEVQFNWYVDGVEVHNAKTKPREEQFNSTFRVVSVLTVVHQDWLNGKEYKCKVSNKGLPSSIEKTISKTKGQPREPQVYTLPPSREEMTKNQVSLTCEVKGFYPSDIAVEWESNGQPENNYKTTPPMLDSDGSFFLYSKLTVDKSRWQQGNVFSCSVMHEALHNHYTQKSLSLSPGK
light 1: DIQMTQSPSSLSASVGDRVTITCRASQSTRSHLAWYQQKPGKAPKLLIYKASSLEGGVPSRFSGSGSGTDFTLTISSLQPEDFATYYCQQYGSYSRTFGQGTKVEIKRTVAAPSVFIFPPSDEQLKSGTASVVCLLNNFYPREAKVQWKVDNALQSGNSQESVTEQDSKDSTYSLSSTLTLSKADYEKHKVYACEVTHQGLSSPVTKSFNRGEC
heavy 2: EVQLVESGGGLVQPGGSLRLSCAASGFTFSDYYMTWVRQAPGKGLEWVAFIRNQARGYTSDHNPSVKGRFTISRDNAKNSLYLQMNSLRAEDTAVYYCARDRPSYYVLDYWGQGTTVTVSSASTKGPSVFPLAPCSRSTSESTAALGCLVKDYFPEPVTVSWNSGALTSGVHTFPAVLQSSGLYSLSSVVTVPSSNFGTQTYTCNVDHKPSNTKVDKTVERKCRVRCPRCPAPPVAGPSVFLFPPKPKDTLMISRTPEVTCVVVAVSHEDPEVQFNWYVDGVEVHNAKTKPREEQFNSTFRVVSVLTVVHQDWLNGKEYKCKVSNKGLPSSIEKTISKTKGQPREPQVYTLPPSREEMTKNQVSLTCLVKGFYPSDIAVEWESNGQPENNYKTTPPMLDSDGSFFLYSRLTVDKSRWQQGNVFSCSVMHEALHNHYTQKSLSLSPGK
light 2: DIQMTQSPSSLSASVGDRVTITCTSSQSLFNVRSQKNYLAWYQQKPGKAPKLLIYWASTRESGVPSRFSGSGSGTDFTLTISSLQPEDFATYYCKQSYDLFTFGGGTKVEIKRTVAAPSVFIFPPSDEQLKSGTASVVCLLNNFYPREAKVQWKVDNALQSGNSQESVTEQDSKDSTYSLSSTLTLSKADYEKHKVYACEVTHQGLSSPVTKSFNRGEC
notes: Chains 1-2: B7-H4 arm; chains 3-4: CD3 arm; Full-length chains; IgG2 dA D265A EEE/RRR
For B2, the 50% effective concentration (EC50) (usually the concentration giving half of the maximal effect) in [4] is 46 nM; in experiment [5], 64 nM. The dissociation constant Kd in experiment [6] was found to be 63.5 nM; in [7], 66.8 nM; in experiment [8], 49.8 nM; in experiment [9], 58.8 nM; in [10] it was 62.5 nM; in experiment [11], 70.8 nM. The dissociation rate constant (koff) in [6] was approximately 0.0337 s⁻¹; in experiment [7], approximately 0.0338 s⁻¹; in experiment [8] it was 0.0317 s⁻¹; in [9] it was 0.0305 s⁻¹; in experiment [10], 0.0309 s⁻¹; in experiment [11] it was 0.0317 s⁻¹. For the same molecule, the kon in [6] was 531000 M⁻¹ s⁻¹; in [7], 506000 M⁻¹ s⁻¹; in experiment [8] it was 638000 M⁻¹ s⁻¹; in experiment [9], 519000 M⁻¹ s⁻¹; in [10], 499000 M⁻¹ s⁻¹; in experiment [11] it was 449000 M⁻¹ s⁻¹.

B3: B7-H4xCD3 bispecific antibody 1156 (bispecific antibody, IgG2)
heavy 1: EVQLVESGGGLVQPGGSLRLSCAVSGGSFSGYYWNWVRQAPGKGLEWIGEINHSGSATYNPSLKSRVTISVDTAKNSLYLQMNSLRAEDTAVYYCARGLYNWNVDHWGQGTLVTVSSASTKGPSVFPLAPCSRSTSESTAALGCLVKDYFPEPVTVSWNSGALTSGVHTFPAVLQSSGLYSLSSVVTVPSSNFGTQTYTCNVDHKPSNTKVDKTVERKCEVECPECPAPPVAGPSVFLFPPKPKDTLMISRTPEVTCVVVAVSHEDPEVQFNWYVDGVEVHNAKTKPREEQFNSTFRVVSVLTVVHQDWLNGKEYKCKVSNKGLPSSIEKTISKTKGQPREPQVYTLPPSREEMTKNQVSLTCEVKGFYPSDIAVEWESNGQPENNYKTTPPMLDSDGSFFLYSKLTVDKSRWQQGNVFSCSVMHEALHNHYTQKSLSLSPGK
light 1: DIQMTQSPSSLSASVGDRVTITCRASQGIRNDLGWYQQKPGKAPKRLIYAASSLQSGVPSRFSGSGSGTDFTLTISSLQPEDFATYYCLQHNAYPRTFGGGTKVEIKRTVAAPSVFIFPPSDEQLKSGTASVVCLLNNFYPREAKVQWKVDNALQSGNSQESVTEQDSKDSTYSLSSTLTLSKADYEKHKVYACEVTHQGLSSPVTKSFNRGEC
heavy 2: B2 heavy 2
light 2: B2 light 2
notes: as for B2
As for B3, a half-maximal response in experiment [4] (EC50) required 27 nM. This molecule showed an EC50 in experiment [5] of 44.8 nM. In experiment [6], this molecule showed a dissociation constant Kd of 62.4 nM, a koff of approximately 0.0339 s⁻¹ and an on-rate constant (kon) of 543000 M⁻¹ s⁻¹. In experiment [7], binding was put at a Kd of 68.8 nM, the off-rate (koff) is approximately 0.0341 s⁻¹ and the kon came to 496000 M⁻¹ s⁻¹.
